Assay: label from the status in PepcDB records

Sequence | protein production
MYLKHFGLGQAPFSLTPNTGFFFGLSPHVEALQVLQTALQTGEGFIKVTGEVGTGKTLICRKLINELPQGFHCAYLPNPYLTPAELRWAVANELGLKYTSEIDQQQLTGLIQQQLLALSTHGHAIVLVLDEAQALPDESLEALRLFTNLETESRKLLQVVLFGQPELDERLKRQAFRQLRQRITFSYNLRPLTWDETDAYIRYRLAVAGHAGQALFSPKITRKIAQASRGIPRLINILAHKALMLSFGEGATQVRMSHLKGAICDTEDASPTRVQKWSTYFAIAFMVFAVAMLALLLSGTNFLQWWGDGA | failed
MYLRPDEVARVLEKVGFTVDVVTQKAYGYRRGENYVYVNREARMGRTALVIHPTLKERSSTLAEPASDIKTCDHYQQFPLYLAGERHEHYGIPHGFSSRVALERYLNGLFGEAS | failed
MYLRSYMGWRFWALFFCLCSPSSVSAERLASSYLKVTEEAASSRQLIRYCVDPDWLPYEAIREGEHVGISSDYIRYIESHSNFKFSLVPTTSWSETLNFLQTGRCELTPMLNKTATREQFLHFSHVYFHSPNVLVSLKEQPFLQGFENIGSRTLAVPKGYRLAEYIQHYYPKVKIIEVGSEPAGLEAVLDKRADLFVGSMFSVNAYIQQTGFNHLKIAGWGGPEDELRMGVSLGHEALLPILNQVLDDVDELERIRIYQKWNNITVIDETNYLLIYQVIVGTLLVVFLLATRTFFISRYNRRLTDKNEQLEALRLRLEHTNAELEFLSTHDPLTKLYNRHYFNRQFVHEHRSEISSEGAICLVMLDIDFFKEINDTLGHAVGDNILMELSGVLQHCVRETDVVARWGGEEFVILCHQTSIDLVKTLCQRIAAAIKDYRFSGNVQLTCSFGIAKLVNNEPMQSCFERADKALYQAKALGRNQICVDEFNT | failed
MYNPTAIAATNYQILPRRGKHKIFIGMAPGVGKTYRMLEEGHALKQDGVDVAIGLLEAHGREETTLKAEGLELIPRKQVYCRNVLLQEMDTEEILRRSPQLVLIDELAHTNIPGSKQEKRYQDVEKILNAGIDVYSTVNIQHLESLNDLVYRISGVVVRERIPDRIIDDADEIVVVDVTPETLQERLQEGKIYAPEKIDQALQNFFRRSNLIALRELALREIADNIEEESISETKNLHYNIRERVLVCISTYPNSIQLLRRGARIANHMNGQLFVLFVAPAGKFLSKSEALHIETCKRLCQEFTGEFLRIESPNIVTTIVKIATQERITQIVLGETRRSRFQLLFKGSIVQQLMRALPQVDIHIIANN | failed
MYSLFQEGRKMKNTAFLITKNHYPKDYRLKKSPDSDSAMGVAKRILAEVMIFRRVPETISLCGTGCQKCASPHLPKIISAVNKNEPVTFILPAFPGKSPNPEKVLGHLPDHAERLSLNFLGTLCQRIKNFYTPGIKIILCSDGRVFSDVVGMNESDVTAYQLELDRLIKEMSLADLSTFNLDYFYKDLHFVQMREELMKSYGQSLDFLKQKIRNGAKPSASPDEQEANRMYSGITRFLFEDAMHAGQTKSRTAIQKESRFKAYEVIRRSNAWSALIAERFPKAVRLSIHPQTCGSKKLGIRLIGNESWMTPWHGVAVESNKGYVLLRRSEAEALGAKLICSSDGRHSHYQLMAEVSYELLEHHHHHH | not failed
MYSRLPTTYELIEALQASPQAGPAAESRLATVLWAGFVLALVPMLVAGGALVWWHRVLAQVPPAWLPQVFHVLLAVCGVFYVGAWVIRLLDRRAALQHPLRWLTRRLDTQSEVENALLLRLGRIPALQLRARQRRVVLQARLWDASARTMALVLAIGPAAVILADGVAVMAPGGVPALVAIYGAVLVAGCALALFAQLQCSAPLRRLAHVLGEAAEINEAVNRQRQP | failed
MYTITDIAPTDAEFIALIAALDAWQETLYPAESNHLLDLSQLPPQTVIALAIRSPQGEAVGCGAIVLSEEGFGEMKRVYIDPQHRGQQLGEKLLAALEAKARQRDCHTLRLETGIHQHAAIALYTRNGYQTRCAFAPYQPDPLSVFMEKPLFADLRSAAL | not failed
MYTKGSVSTRIAKYLFIILIVAGVISSLSLAIMSSNKYDAEAINISGSLRMQSYRLLYEMQEQPESVETNLRRYHISLHSSALLEVQNQFFTPNVLKHSYQNILQRWTNMEKYARQQDVKNYSKQLTDYVADVDYFVFELQRFSEQKWILGVSVLGFAMLLILLMVSYVIWYTNREVVKPLHLMTKASMQVQMRQFNHIPLDTRKQNELGTLARVFTQMSTELGQLYSRLEEAVNEKTQKLRQTNRTLSTLYQSAQLLNTNTINDKILNQVLNYIFISDHLNFVKVEVMGAEHWDITLGKQDANNELQIETLSVDNEELGVLSWQAGLPCPDPRIMQNLAQMLARALYFHKNLRQKEQLLLMEERSIIARELHDSLAQVLSFLQIQLTLLKHNLKKEDEQSKEKSLAIIANFEQALSGGYAQLRELLATFRLTIQEANLQLALKQVIDSLRSQTTMQMNVNCQLPSQSLNPQQLVHVLQIVREATTNAIKHSQGTVIEISARINAEGEYEILVEDDGVGIPNLEEPEGHYGLNIMAERCRQLNAQLHIHRREQGGTQVKITLPHTLY | failed
MYVTKRLSEYKRNPSELTLLPTEGPNSGVLVIQDEESRPTLKCCFVNSFDWELNGLPFPQNTRVIVKRQIGTALYLDPVAFIPVLHQPPSSNLYYVIRGSGKHTGEACVSAKEGDRASCCFCFTYIPEAVPRPLDPFDINQQFEIHQGRSSTKKFFATSVASDGIPPQFLTRKGWSVIFSAPEVEDYGLIDDAKGIVDAKLRYELPDLDNSVVVGKWYVPFLFVKEGDAKDQMYKSMYYSMTLQQRFEEVFFCENVGNNKRFEVVVDVEVETEVVKLEGERIARETQGVNSDGVVWFNASGNEKIGLGSVVLERMKWEEERFGWLNKGYEQRSSIKRTERFEGGGPYWKSYRCYVLVETFELKRTDGSLVLTYEFKHVDKLKSKWD | failed
NAGFECGTEYLNFDEQPATMLDANLLSVEEGYPVTIIERLRTADGEPVVYCLDKIAKKELTCTEYQMSNGSILSAIKEQSNHNICYADTEIEAVNYEPRISEVLNASPHEGLILLKITHYNELDEPILYSLNYMKNSLVQ | failed
NAKAESVSSGEFNRLRLALLALEARHSKRLGVLILDEIDSNLSGEESEGVARVLQELSRSYQILAISHQPHMPSYAHRHFLVKKEAKGSTIERLDRE | failed
NCKKIGEDSKIIIRQITDNDLELLMAWRSNPLIYKFFYIQKEPLKWEEHYSWWMSRENRVDWIILLRENNTIRKVGSVNVSQLNTDNPEIGILIGEFFLWGKHIGRHSVSLVLKWLKNIGYKKAHARILENNIRSIKLFESLGFKKTKKGRENEWIYEVNL | not failed
NDPDADRFAVAARKADGEYQMLTGDQVGSLFGHYLLSQTDAHRQLVGNTIVSSSLLSKIAAAHGARYYQTLTGFKWLTNVAMQEQTEQHQFLFAYEEALGYTIGSTVWDKDGLSALVAFAQLAAELNAQGKTVWDQLEALYRQHGLHVN | failed
NDVFSDEVKKIDDNTFIVEGRMPLDDFNKMFHVELPARGVDTVAGFVLTLTGTIPEEDDKVVVEYDTLRFTVEEMNDARLVSVRVEKDI | failed
NELEKGNDGSGTVDPVNASTLVNVYSDKSGSEASLLVGDVLVKDSRTLTLNVPAACEKVYMKYNTVSGTEATKEFALSPVSRGVDQSTGFNFETNRLASVTLALPEDAVQPTNETDQGYLFYHNTGVVMFEDGWPIQLDSWYDEDFNDVVFEYDLKVTECHSQQMMETVGGKEELLLTLDVRAVGGIYPTVLGVVLDGLKSEYVDRITASLILKGGQGTMTDLAKEELSTKNIVKVENKNWNWSNDTRKEPRFAILTVDKAQAEGTVITLDGLTSLMDNNQDMFQVTQGKVREGLPMLRAEVRLIGKEGLTGAERDAQLAAFRELILDTNRQNFFIKVNGGKEIHMRGYAPTSAYKAEYEALVAGDTTLDANVYYSNTKGSTWGVKLPVGTRHAYERVPFREAYPDFTKWVDSKGVSNQKWYENFVDEKTIRYW | not failed
NIKNILSERVSAAMVAAGLPEGTNPAISLSNRPQFGDYQANGVMGAAKKLKTNPRELATKVVAELDLDGIASKIELAGPGFINIHLDESWLAAQLNEVAQDDFIGVAQRGTT | not failed
NITPLKEVQLALAEREAMMQALFDQASQFTALLTPTGKVVKVNQRALDFAGITVDEIVDQDFWETPWWQASEQLKADLKSAIHQAAQGILIRYDVENLGNNGQKVILDFSIRPIYDTDQRIIFLLCEGRDITDKFRIQEALAESEERFRQTFQTTAVSSALISLD | failed
NIYDSANELSRGLRGLPEYKAVKAAKDAIAADAEASKIFTDYLAFQEEIQKLAQTGQMPDASFQAKMEGFGKQIQGNSLLSEFFTKQQQLAIYLSDIEKIVFEPVSEL | failed
NKEFTWTSALTFTLNNEKVKSLIGGTADHVKNEDYYLSIGYPVNSFYAPKIDGMWQLGEETDAAAFGCAPGDIKINVPGMIKEADGKFYKVGDDGQPLTDKNGDIIYYTKDNKYTYSDADSQVLGHNAPKWTMGFQNSFTYKNFDLTIYAYFRWGQMINYEMLGWYDSTGKGNFPTYFNYWTESNPSNDFPALNANRETKSYIGYGSLNYVDGSFFKIKNITLGYTFPERLLKNAGISKCRLYATITNPLTVAKSHLLKDYDPEMNGALKYPLSKQLVFGVNVSF | failed
NKSIRMTPSQVAFEIRGTLLPGEVFAICGSCDALGNWNPQNAVALLPENDTGESMLWKATIVLSRGVSVQYRYFKGYFLEPKTIGGPCQVIVHKWETHLQPRSITPLESEIIIDDGQFGIHNGVETLDSGWLTCQTEIRLRLHYSEKPPVSITKKKLKKSRFRVKLTLEGLEEDDDDRVSPTVLHKMSNSLEISLISDNEFKCRHSQPECGYGLQPDRWTEYSIQTMEPDNLELIFDFFEEDLSEHVVQGDALPGHVGTACLLSSTIAESGKSAGILTLPIMSRNSRKTIGKVRVDYIIIKPLPGYSCDMKSSFSKYWKPRIPLDVGHRGAGNSTTTAQLAKVQENTIASLRNAASHGAAFVEFDVHLSKDFVPVVYHDLTCCLTMKKKFDADPVELFEIPVKELTFDQLQLLKLTHVTALKSKDRKESVVQEENSFSENQPFPSLKMVLESLPEDVGFNIEIKWICQQRDGMWDGNLSTYFDMNLFLDIILKTVLENSGKRRIVFSSFDADICTMVRQKQNKYPILFLTQGKSEIYPELMDLRSRTTPIAMSFAQFENLLGINVHTEDLLRNPSYIQEAKAKGLVIFCWGDDTNDPENRRKLKELGVNGLIYDRIYDWMPEQPNIFQVEQLERLKQELPELKSCLCPTVSRFVPSSLCGESDIHVDANGIDNVENA | not failed
NLKVKGARDVFEYMKGRIPDETKEHLFVLFLSTKNQILRHETITIGTLTASLIHPREIFKAAIRESAHSIILVHNHPSGDVQPSNADKQVTSILKKAGDLLQIELLDHVIVGNNDWFSFRDHALL | not failed
NMPRLRMLMSAFPKGGDLHHHLAGAIDAETMLQWAGDQNLCIDTIKLSVIPSPCDAAVNKKPAKNLERQDPILWNKLIDVFSMRNYHFDVAAGEHSGHDHFFSSFFHFAAALDNNFGRMIAYSRRDAAANNLLYIETMQNPKVVSTFARSVLQDAKGKNSPEDLWKVVKDRLPAAVAAAKAETTEAEAQSRQILQCDGRQPDPACSVTMRYMVFAVRAMPPEMVFAQLALGFALAHSDPRWVGVNIVAPEDGAVSMQDYDLHMQFFRFLRQLYPDVKITLHAGELALPLVPTAGLRDHIRKAVFVAGADRIGHGIDIGSEMNPVEILHHMAERPVPVEINLSSNDAILNIKGNQHPFALYRQYNVPVVISTDDAGVSRNDLTTEYMRAIEEQHVSYSDLKKLSRDSLEYAFLSGEGLWQKNTGESVKPVCSGIAFTAMPQGKCADFLVKNDKAALQWKLEAAFIRYEEQVREGA | failed
NQEPSGAVRITLSRFAYLLILKPAMAAFCQQYPGIQLEISVYDGTVNIIEERFDLGIRFGDILEGGVVARPLMKPFREGLYASSAYLAEYGVPAMPADLHHHRLIGYRFITNNRILPLILNDHGEQLTVEMPGQLISNDIDVM | failed
NQLWTVEEQKKLEQLLIKYPPEEVESRRWQKIADELGNRTAKQVASQVQKYFIKLTKAGIPV | not failed

— a protein production outcome set (Wang et al. 2014)
